Substrate in series [1]: CC(C)=CCC/C(C)=C/CC/C(C)=C/CO[P@@](=O)(O)OP(=O)(O)O
The series is described as follows: cells, lysate or membranes. To be noted: Mg2+ ([…] magnesium chloride in assay).

Substrate in series [2]: O=C(O)Cc1cc(O)ccc1O
Put plainly: cells, lysate or membranes. The conditions noted are these: Mg2+ ([…] magnesium chloride in assay).

B1: homogentisate solanesyltransferase (CrHST) (Chlamydomonas reinhardtii) (protein)
chain: SAAVPAPLPNGGNDESFAQKLANFPNAFWKFLRPHTIRGTILGTTAVTAKVLMENPGCIDWALLPKALLGLVALLCGNGYIVGINQIYDVDIDVVNKPFLPVASGELSPALAWGLCLSLAAAGAGIVAANFGNLITSLYTFGLFLGTVYSVPPLRLKQYAVPAFMIIATVRGFLLNFGVYSATRAALGLPFEWSPAVSFITVFVTLFATVIAITKDLPDVEGDQANNISTFATRMGVRNVALLAIGLLMANYLGAIALALTYSTAFNVPLMAGAHAILAATLALRTLKLHAASYSREAVASFYRWIWNLFYAEYALLPFL
As a reminder, the Km is the substrate concentration at which the rate is half of its maximum. With B1, the Km in series [1] came to 22.76 ± 1.70 µM; in series [2], 48.54 ± 3.89 µM.

The record behind these values is PMC10920428, “Expression, purification, and characterization of transmembrane protein homogentisate solanesyltransferase” (Applied Microbiology and Biotechnology, 2024).
